Experimental data as given in PMC8888459 (2022).

Key:
Yah1-GST fusion protein [1] = biological target: T1, Yah1-GST fusion protein (S. cerevisiae, UniProt Q12184 17-172); assay: BLI; kd1 of 2:1 fit
T1 chain: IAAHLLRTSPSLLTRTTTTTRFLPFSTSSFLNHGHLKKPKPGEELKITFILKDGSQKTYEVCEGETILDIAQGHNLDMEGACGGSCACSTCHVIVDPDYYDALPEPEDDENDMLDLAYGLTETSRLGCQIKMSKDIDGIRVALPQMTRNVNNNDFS

Yah1-GST fusion protein [2] = biological target: T1, Yah1-GST fusion protein; assay: BLI; kd2 of 2:1 fit, second site
Yah1-GST fusion protein [3] = biological target: T1, Yah1-GST fusion protein; assay: BLI; anaerobic, reduced Yah1; kd1 of 2:1 fit
Yah1-GST fusion protein [4] = biological target: T1, Yah1-GST fusion protein; assay: BLI; KD1 of 2:1 heterogeneous ligand fit (46%)
Yah1-GST fusion protein [5] = biological target: T1, Yah1-GST fusion protein; assay: BLI; anaerobic, reduced Yah1; KD1 of 2:1 fit (61%)
Yah1-GST fusion protein [6] = biological target: T1, Yah1-GST fusion protein; assay: BLI; anaerobic, reduced Yah1 (Fig. 6C); kd1 of 2:1 fit
Yah1-GST fusion protein [7] = biological target: T1, Yah1-GST fusion protein; assay: BLI; anaerobic, reduced Yah1; kd2 of 2:1 fit, second site
Yah1-GST fusion protein [8] = biological target: T1, Yah1-GST fusion protein; assay: BLI; KD2 of 2:1 heterogeneous ligand fit (54%), second site
Yah1-GST fusion protein [9] = biological target: T1, Yah1-GST fusion protein; assay: BLI; anaerobic, reduced Yah1 (Fig. 6C); KD1 of 2:1 fit (40%)
Yah1-GST fusion protein [10] = biological target: T1, Yah1-GST fusion protein; assay: BLI; anaerobic, reduced Yah1; KD2 of 2:1 fit (39%), second site
Yah1-GST fusion protein [11] = biological target: T1, Yah1-GST fusion protein; assay: BLI; anaerobic, reduced Yah1 (Fig. 6C); kd2 of 2:1 fit, second site
Yah1-GST fusion protein [12] = biological target: T1, Yah1-GST fusion protein; assay: BLI; anaerobic, reduced Yah1 (Fig. 6C); KD2 of 2:1 fit (60%), second site

koff (Yah1-GST fusion protein [1]): 3.54e-07 s⁻¹ | koff (Yah1-GST fusion protein [2]): 0.0267 s⁻¹ | koff (Yah1-GST fusion protein [3]): 3.88e-07 s⁻¹ | Kd (Yah1-GST fusion protein [4]): 0.0966 nM | Kd (Yah1-GST fusion protein [5]): 0.82 nM | koff (Yah1-GST fusion protein [6]): 4.91e-07 s⁻¹ | koff (Yah1-GST fusion protein [7]): 0.00204 s⁻¹ | Kd (Yah1-GST fusion protein [8]): 280 nM | Kd (Yah1-GST fusion protein [9]): 0.446 nM | Kd (Yah1-GST fusion protein [10]): 114 nM | koff (Yah1-GST fusion protein [11]): 0.00248 s⁻¹ | Kd (Yah1-GST fusion protein [12]): 65.8 nM
B1: NIA complex (Nfs1–Isd11–ACPEc) (complex)
chain 1: PAAGVKLDDNFSLETHTDIQAAAKAQASARASASGTTPDAVVASGSTAMSHAYQENTGFGTRPIYLDMQATTPTDPRVLDTMLKFYTGLYGNPHSNTHSYGWETNTAVENARAHVAKMINADPKEIIFTSGATESNNMVLKGVPRFYKKTKKHIITTRTEHKCVLEAARAMMKEGFEVTFLNVDDQGLIDLKELEDAIRPDTCLVSVMAVNNEIGVIQPIKEIGAICRKNKIYFHTDAAQAYGKIHIDVNEMNIDLLSISSHKIYGPKGIGAIYVRRRPRVRLEPLLSGGGQERGLRSGTLAPPLVAGFGEAARLMKKEFDNDQAHIKRLSDKLVKGLLSAEHTTLNGSPDHRYPGCVNVSFAYVEGESLLMALRDIALSSGSACTSASLEPSYVLHALGKDDALAHSSIRFGIGRFSTEEEVDYVVKAVSDRVKFLRELSPLWEMVQEGIDLNSIKWSGH
chain 2: MPGFTAPTRRQVLSLYKEFIKNANQFNNYNFREYFLSKTRTTFRKNMNQQDPKVLMNLFKEAKNDLGVLKRQSVISQMYTFDRLVVEPLQGRKH
chain 3: MSTIEERVKKIIGEQLGVKQEEVTNNASFVEDLGADSLDTVELVMALEEEFDTEIPDEEAEKITTVQAAIDYINGHQA
